Test results from patent publication US20240025988A1 (GlaxoSmithKline, published 2024).
Where a chain is given by its changes, count along the chain named. Where “and” joins values, the source holds several entries; their conditions need not be identical. Equal entries are not always repeated.

Columns and labels:
[1] = target: T1, cynomolgus monkey IL-7 (cynomolgus monkey, UniProt A0A2K5W745 26-178); test: SPR, Biacore 8K, 37 °C, IL-7 as analyte
T1 construct: also called cynoIL-7; cynomolgus IL-7
T1 sequence: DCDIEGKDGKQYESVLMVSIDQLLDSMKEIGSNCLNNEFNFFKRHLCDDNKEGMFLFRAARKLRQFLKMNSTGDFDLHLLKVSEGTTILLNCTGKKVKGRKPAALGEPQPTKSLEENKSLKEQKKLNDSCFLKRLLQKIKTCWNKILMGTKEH
Source text: (§1) (Table 5). […] (Table 5).

[2] = target: T2, human IL-7 (human, UniProt P13232 26-177); test: SPR, Biacore 8K, 37 °C, IL-7 as analyte
T2 construct: also called hIL-7; rhIL-7
T2 sequence: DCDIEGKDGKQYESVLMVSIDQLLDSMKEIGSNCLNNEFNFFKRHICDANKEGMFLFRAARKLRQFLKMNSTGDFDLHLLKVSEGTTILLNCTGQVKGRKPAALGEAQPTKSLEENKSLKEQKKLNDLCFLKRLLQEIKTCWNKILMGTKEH
Source text: as §1

[3] = target: T2, human IL-7; test: cell-based or functional assay
[4] = target: T1, cynomolgus monkey IL-7; test: SPR, Biacore 8K, 25 °C, IL-7 as analyte
Source text: as §1

[5] = target: T2, human IL-7; test: SPR, Biacore 8K, 25 °C, IL-7 as analyte
Source text: as §1

[6] = target: T1, cynomolgus monkey IL-7; test: SPR, Biacore 8K, 37 °C (text value; Table 5 prints 73); 37 C; value of the running text
Source text: as §1

[7] = target: T2, human IL-7; test: cell-based or functional assay; remark: listed apart in the source
[8] = target: T2, human IL-7; test: SPR, Biacore 8K, 37 °C; geometric mean KD from all experiments, with 85% confidence interval in brackets

B1: DRSPAI-L7B (antibody, human IgG1, kappa, V domains shown)
VH: QVQLVESGGGVVQPGRSLRLSCAASGFTFSSYGVHWVRQAPGKGLEWLAAIWTGGSTDYNSAFSSRFTISRDNSKNTLYLQMNSLRAEDTAVYYCARNGYGESFAYWGQGTLVTVSS
VL: DIQMTQSPSSLSASVGDRVTITCKASESLDHDGDSYINWYQQKPGKAPKLLIYMGSNVEFGVPARFSGSGSGTDFTLTISSLQPEDFATYYCQQSNVDPLTFGGGTKVEIKR
notes: Human IgG1 kappa; also called DRSPAI-171B; DRSPAI-17B
With B1 as the binder, how does the Kd [1] read?
Its Kd is 0.073 nM.

What about the koff [1] of the same binder?
Its koff is 0.000462 s⁻¹.

And the kon [1]?
The kon was 6.17e+06 M⁻¹ s⁻¹.

And the Kd [2]?
Its Kd is 0.069 nM and 0.046 nM and 0.075 nM and 0.087 nM.

What about the koff [2] of the same binder?
The koff was 0.000568 s⁻¹ and 0.000678 s⁻¹ and 0.000826 s⁻¹ and 0.000515 s⁻¹.

And the kon [2]?
Its kon is 8.28e+06 M⁻¹ s⁻¹ and 1.47e+07 M⁻¹ s⁻¹ and 1.1e+07 M⁻¹ s⁻¹ and 5.9e+06 M⁻¹ s⁻¹.

What about the “IL-6 secretion by CD4+ Tmem cells, IC50” value [3] of the same binder?
The value was 202 pM.

What about the “IL-10 secretion by PBMC (rhIL-7 and anti-CD3), mean IC50” value [3] of the same binder?
The value was 207 pM.

And the “TNFα secretion by CD4+ Tmem cells, IC50” value [3]?
The value was 127 pM.

And the Kd [4]?
The Kd was 0.053 nM.

What about the koff [4] of the same binder?
Its koff is 0.00017 s⁻¹.

And the kon [4]?
Its kon is 3.17e+06 M⁻¹ s⁻¹.

What about the Kd [5] of the same binder?
Its Kd is 0.031 nM and 0.034 nM.

What about the koff [5] of the same binder?
The koff was 0.000206 s⁻¹ and 0.000158 s⁻¹.

What about the kon [5] of the same binder?
The kon was 6.49e+06 M⁻¹ s⁻¹ and 4.65e+06 M⁻¹ s⁻¹.

And the Kd [6]?
Its Kd is roughly 0.075 nM.

What about the “IFN-γ production by PBMC, IC50 (IL-7 10 ng/ml, anti-CD3)” value [7] of the same binder?
Its value is 196 pM and 29.4 ng/ml.

And the “IL-17 production by Tmem, IC50 (IL-7 20 ng/ml)” value [7]?
The value was 40.5 ng/ml and 270 pM.

And the “Teff and Tmem proliferation (CD4+), IC50 (IL-7 10 ng/ml)” value [7]?
The value was 79.5 ng/ml and 530 pM.

And the “Teff and Tmem proliferation (CD4+), IC50 (IL-7 20 ng/ml)” value [7]?
Its value is 78 ng/ml and 520 pM.

And the “pSTAT5 in CCRF-CEM cells, IC50 (IL-7 0.034 ng/ml, 2 pM)” value [7]?
The value was < 0.15 ng/ml and < 1 pM.

What about the “pSTAT5 in whole blood (CD4+ T cells), median IC50 (IL-7 1 ng/ml)” value [7] of the same binder?
The value was 5.1 ng/ml and 34 pM.

And the Kd [8]?
The Kd was 0.0674 nM.

B2: A1290 (antibody, human IgG1, kappa, V domains shown)
VH: B1 VH with V34L, S61A, S64I
VL: B1 VL with E27Q, L29V, H31D, Y36F, M54V, G55A, V58L, F60S, V97E
With B2 as the binder, how does the “pSTAT5 in whole blood (CD4+ T cells), median IC50” value [3] read?
Its value is 18 pM and 0.00275 µg/ml.

B3: A1291 (antibody, human IgG1, kappa, V domains shown)
VH: B1 VH with V34L, S61A, A62E
VL: B1 VL with E27H, L29V, H31D, I37M, G55A, V58L, F60S, V97E
How did the “pSTAT5 in whole blood (CD4+ T cells), median IC50” value [3] turn out when B3 was run?
The value was 16 pM and 0.00246 µg/ml.

B4: A1294 (antibody, human IgG1, kappa, V domains shown)
VH: B1 VH with S31T, T53S, S61V
VL: B1 VL with E27Q, L29V, H31D, I37M, G55A, V58L, F60S, V97E
B4 was tested. Which “pSTAT5 in whole blood (CD4+ T cells), median IC50” value [3] did it give?
Its value is 76 pM and 0.0114 µg/ml.
